The values that follow come from paper PMC11480441, “Structure of tetrameric forms of the serotonin-gated 5-HT3A receptor ion channel” (The EMBO Journal, 2024).

Series [1] deals with the molecule itself. Description: cryo-EM structure; single-particle cryo-EM of purified 5-HT3AR in saposin lipoprotein (Salipro) with brain polar lipids, 25 mM HEPES, 125 mM NaCl, pH 7.4; apo, with serotonin (uncaged RuBi-5-HT, 200 uM), and with 100 uM 5-HT + 2 mM CaCl2; 2D and 3D classification without imposed symmetry.
Series [2] deals with the molecule itself. Nature of the series: native gel or EMSA; blue native PAGE, 5-20% gradient gel, 4 °C; 10 ug solubilised 5-HT3AR incubated 30 min with 0 to 10 mM SDS; BSA oligomers as size markers. Background: In EMSA bound probe runs differently from free probe, usually more slowly.

“And” between values parts separate entries of the source, which are not always exact repeats. Identical values can stand only once.

B1: murine wild-type serotonin 5-HT3A receptor (receptor, mouse (murine), UniProt P23979 24-489, looked up)
chain: SRRRATQARDTTQPALLRLSDHLLANYKKGVRPVRDWRKPTTVSIDVIMYAILNVDEKNQVLTTYIWYRQYWTDEFLQWTPEDFDNVTKLSIPTDSIWVPDILINEFVDVGKSPNIPYVYVHHRGEVQNYKPLQLVTACSLDIYNFPFDVQNCSLTFTSWLHTIQDINITLWRSPEEVRSDKSIFINQGEWELLEVFPQFKEFSIDISNSYAEMKFYVIIRRRPLFYAVSLLLPSIFLMVVDIVGFCLPPDSGERVSFKITLLLGYSVFLIIVSDTLPATAIGTPLIGVYFVVCMALLVISLAETIFIVRLVHKQDLQRPVPDWLRHLVLDRIAWILCLGEQPMAHRPPATFQANKTDDCSGSDLLPAMGNHCSHVGGPQDLEKTPRGRGSPLPPPREASLAVRGLLQELSSIRHFLEKRDEMREVARDWLRVGYVLDRLLFRIYLLAVLAYSITLVTLWSIWHYS
modifications: densities resembling N-linked glycosylation at N82, N148 and N164
notes: 5-HT3A receptor subunit, mouse, wild type, full length; The same subunit is found as a pentamer and as a tetramer (4 or 5 copies); The intracellular domain is not modelled in the tetramer structures; also called 5-HT3R; 5-HT3AR-Salipro; source: purified (C12E9 solubilisation, Streptactin, SEC) and reconstituted in saposins with porcine brain polar lipids; also unpurified in cell-derived plasma …
As to B1, the stoichiometry N (usually the number of molecules, sites or subunits per partner or assembly) was 4 and 5 in series [1]; 3 and 2 in series [2].
